Experimental data: patent US20140087995A1 (published 2014)
Blank lines part the entries; values can stand above or below the binder they belong to. Numbered stars: 1 amine (or outer) side, 2 acyl side, 3 side chain; on linkers, the order of the positions; unused ones are H or OH. Bridge positions count the residues as written; N and C are the ends. Side chains are listed from the residue outwards. Ends that are not written are not given here. * marks the point of attachment. C20 diacid = O=C(O)CCCCCCCCCCCCCCCCCCC(=O)*; γGlu = O=C(O)[C@H](CCC(=O)[*:2])N[*:1]; AEEA = NCCOCCOCC(=O)O

Assays:
[1] = biological target: T1, rat calcitonin receptor (rat, UniProt P32214 25-516); test: IC50 on rat CTR divided by IC50 on rat amylin receptor (Assays VIII/VI)
T1 construct: whole, on cells; Used as membranes prepared from BHK tk'ts 13 cells transiently transfected with the rat calcitonin receptor (Assay VIII); also called rCTR; rat calcitonin (a) receptor
T1 sequence (looked up): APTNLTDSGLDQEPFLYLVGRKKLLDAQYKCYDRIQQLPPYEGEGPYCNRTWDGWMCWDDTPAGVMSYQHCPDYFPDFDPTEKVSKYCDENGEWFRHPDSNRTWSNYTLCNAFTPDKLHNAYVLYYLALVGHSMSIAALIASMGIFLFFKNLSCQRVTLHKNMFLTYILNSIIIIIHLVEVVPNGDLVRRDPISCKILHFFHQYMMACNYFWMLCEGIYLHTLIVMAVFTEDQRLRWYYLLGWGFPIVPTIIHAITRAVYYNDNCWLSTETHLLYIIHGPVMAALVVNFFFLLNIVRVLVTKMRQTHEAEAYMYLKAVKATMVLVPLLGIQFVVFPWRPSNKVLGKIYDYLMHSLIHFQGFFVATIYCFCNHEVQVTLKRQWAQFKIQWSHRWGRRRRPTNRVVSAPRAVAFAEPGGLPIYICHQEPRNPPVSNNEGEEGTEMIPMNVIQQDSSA

[2] = biological target: T2, rat amylin receptor (rat calcitonin receptor + rat RAMP 3) (rat, UniProt P32214 25-516; Q9JJ73 23-147); test: SPA competition with 125I-rat amylin, membranes of BHK cells with rat CTR + rat RAMP3 (Assay VI)
T2 construct: whole, on cells; Used as membranes prepared from BHK tk'ts 13 cells transiently transfected with rat calcitonin receptor and rat RAMP 3 (Assay VI); also called rAmylin-R; rat amylin 3(a) receptor
T2 sequence (looked up) 1: T1 sequence (looked up)
T2 sequence (looked up) 2: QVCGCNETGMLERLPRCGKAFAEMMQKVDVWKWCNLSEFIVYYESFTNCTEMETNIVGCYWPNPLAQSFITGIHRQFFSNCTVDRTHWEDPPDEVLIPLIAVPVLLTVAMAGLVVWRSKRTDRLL

[3] = biological target: T1, rat calcitonin receptor; test: SPA competition with 125I-calcitonin, membranes of BHK cells with rat CTR (Assay VIII)
[4] = biological target: T3, human calcitonin receptor (human, UniProt P30988 25-474); test: IC50 on human CTR divided by IC50 on human amylin receptor (Assays VII/V)
T3 construct: whole, on cells; Used as membranes prepared from a BHK tk'ts 13 cell line stably transfected with the human calcitonin receptor (Assay VII); also called hCTR; hCT
T3 sequence (looked up): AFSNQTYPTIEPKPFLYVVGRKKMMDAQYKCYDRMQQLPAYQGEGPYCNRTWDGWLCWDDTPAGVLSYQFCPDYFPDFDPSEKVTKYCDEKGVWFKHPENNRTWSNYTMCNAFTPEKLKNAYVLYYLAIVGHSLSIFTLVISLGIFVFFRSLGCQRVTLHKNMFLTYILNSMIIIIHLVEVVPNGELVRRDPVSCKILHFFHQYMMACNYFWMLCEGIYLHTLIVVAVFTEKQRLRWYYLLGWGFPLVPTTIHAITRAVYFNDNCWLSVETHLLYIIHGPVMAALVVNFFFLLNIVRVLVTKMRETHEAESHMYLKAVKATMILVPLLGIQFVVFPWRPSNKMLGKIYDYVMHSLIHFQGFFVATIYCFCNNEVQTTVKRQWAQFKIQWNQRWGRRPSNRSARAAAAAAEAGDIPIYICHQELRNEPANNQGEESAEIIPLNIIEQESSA
Summary of the method: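 Competition binding by SPA uses membrane preparations (35 ng/μL final) in pH 7.4 Hepes buffer with 1 mM CaCl2 and 5 mM MgCl₂. Incubation lasts 120 min at 25° C, and IC₅₀ comes from one-site fitting.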

B1: N^ε1-[2-[2-[2-[[(4S)-4-carboxy-4-(19-carboxynonadecanoylamino)butanoyl]amino]ethoxy]ethoxy]acetyl]-[His14,Arg17,Pro21,Pro27,Pro31]-h-amylin (peptide)
peptide: K([AEEA-γGlu-C20 diacid])CNTATCATQRLAHFLRHSSPNFGAIPSSTPVGSNTY-NH2
modifications: disulfide 2-7; N-terminus assumed
SMILES: CC[C@H](C)[C@H](NC(=O)[C@H](C)NC(=O)CNC(=O)[C@H](Cc1ccccc1)NC(=O)[C@H](CC(N)=O)NC(=O)[C@@H]1CCCN1C(=O)[C@H](CO)NC(=O)[C@H](CO)NC(=O)[C@H](Cc1c[nH]cn1)NC(=O)[C@H](CCCNC(=N)N)NC(=O)[C@H](CC(C)C)NC(=O)[C@H](Cc1ccccc1)NC(=O)[C@H](Cc1c[nH]cn1)NC(=O)[C@H](C)NC(=O)[C@H](CC(C)C)NC(=O)[C@H](CCCNC(=N)N)NC(=O)[C@H](CCC(N)=O)NC(=O)[C@@H](NC(=O)[C@H](C)NC(=O)[C@@H]1CSSC[C@H](NC(=O)[C@@H](N)CCCCNC(=O)COCCOCCNC(=O)CC[C@H](NC(=O)CCCCCCCCCCCCCCCCCCC(=O)O)C(=O)O)C(=O)N[C@@H](CC(N)=O)C(=O)N[C@@H]([C@@H](C)O)C(=O)N[C@@H](C)C(=O)N[C@@H]([C@@H](C)O)C(=O)N1)[C@@H](C)O)C(=O)N1CCC[C@H]1C(=O)N[C@@H](CO)C(=O)N[C@@H](CO)C(=O)N[C@H](C(=O)N1CCC[C@H]1C(=O)N[C@H](C(=O)NCC(=O)N[C@@H](CO)C(=O)N[C@@H](CC(N)=O)C(=O)N[C@H](C(=O)N[C@@H](Cc1ccc(O)cc1)C(N)=O)[C@@H](C)O)C(C)C)[C@@H](C)O
notes: Analogue of human amylin; also called compound 61
Ratio rCT/rAmylin binding [1]: 39.7
IC50 [2]: 0.842 nM
IC50 [3]: 33.4 nM
Ratio hCT/hAmylin binding [4]: 66.7

B3: N^ε1-[2-[2-[2-[[(4S)-4-carboxy-4-(19-carboxynonadecanoylamino)butanoyl]amino]ethoxy]ethoxy]acetyl]-[Lys14,Arg17,Pro21,Pro27,Pro31]-h-amylin (peptide)
peptide: K([AEEA-γGlu-C20 diacid])CNTATCATQRLAKFLRHSSPNFGAIPSSTPVGSNTY-NH2
modifications: disulfide 2-7; N-terminus assumed
SMILES: CC[C@H](C)[C@H](NC(=O)[C@H](C)NC(=O)CNC(=O)[C@H](Cc1ccccc1)NC(=O)[C@H](CC(N)=O)NC(=O)[C@@H]1CCCN1C(=O)[C@H](CO)NC(=O)[C@H](CO)NC(=O)[C@H](Cc1c[nH]cn1)NC(=O)[C@H](CCCNC(=N)N)NC(=O)[C@H](CC(C)C)NC(=O)[C@H](Cc1ccccc1)NC(=O)[C@H](CCCCN)NC(=O)[C@H](C)NC(=O)[C@H](CC(C)C)NC(=O)[C@H](CCCNC(=N)N)NC(=O)[C@H](CCC(N)=O)NC(=O)[C@@H](NC(=O)[C@H](C)NC(=O)[C@@H]1CSSC[C@H](NC(=O)[C@@H](N)CCCCNC(=O)COCCOCCNC(=O)CC[C@H](NC(=O)CCCCCCCCCCCCCCCCCCC(=O)O)C(=O)O)C(=O)N[C@@H](CC(N)=O)C(=O)N[C@@H]([C@@H](C)O)C(=O)N[C@@H](C)C(=O)N[C@@H]([C@@H](C)O)C(=O)N1)[C@@H](C)O)C(=O)N1CCC[C@H]1C(=O)N[C@@H](CO)C(=O)N[C@@H](CO)C(=O)N[C@H](C(=O)N1CCC[C@H]1C(=O)N[C@H](C(=O)NCC(=O)N[C@@H](CO)C(=O)N[C@@H](CC(N)=O)C(=O)N[C@H](C(=O)N[C@@H](Cc1ccc(O)cc1)C(N)=O)[C@@H](C)O)C(C)C)[C@@H](C)O
notes: Analogue of human amylin; also called compound 74
Ratio rCT/rAmylin binding [1]: 22.3
IC50 [2]: 4.89 nM
IC50 [3]: 109 nM
Ratio hCT/hAmylin binding [4]: 101

B4: N^ε1-[2-[2-[2-[[(4S)-4-carboxy-4-(19-carboxynonadecanoylamino)butanoyl]amino]ethoxy]ethoxy]acetyl]-[His14,Arg17,Pro21,Pro27]-h-amylin (peptide)
peptide: K([AEEA-γGlu-C20 diacid])CNTATCATQRLAHFLRHSSPNFGAIPSSTNVGSNTY-NH2
modifications: disulfide 2-7; N-terminus assumed
SMILES: CC[C@H](C)[C@H](NC(=O)[C@H](C)NC(=O)CNC(=O)[C@H](Cc1ccccc1)NC(=O)[C@H](CC(N)=O)NC(=O)[C@@H]1CCCN1C(=O)[C@H](CO)NC(=O)[C@H](CO)NC(=O)[C@H](Cc1c[nH]cn1)NC(=O)[C@H](CCCNC(=N)N)NC(=O)[C@H](CC(C)C)NC(=O)[C@H](Cc1ccccc1)NC(=O)[C@H](Cc1c[nH]cn1)NC(=O)[C@H](C)NC(=O)[C@H](CC(C)C)NC(=O)[C@H](CCCNC(=N)N)NC(=O)[C@H](CCC(N)=O)NC(=O)[C@@H](NC(=O)[C@H](C)NC(=O)[C@@H]1CSSC[C@H](NC(=O)[C@@H](N)CCCCNC(=O)COCCOCCNC(=O)CC[C@H](NC(=O)CCCCCCCCCCCCCCCCCCC(=O)O)C(=O)O)C(=O)N[C@@H](CC(N)=O)C(=O)N[C@@H]([C@@H](C)O)C(=O)N[C@@H](C)C(=O)N[C@@H]([C@@H](C)O)C(=O)N1)[C@@H](C)O)C(=O)N1CCC[C@H]1C(=O)N[C@@H](CO)C(=O)N[C@@H](CO)C(=O)N[C@H](C(=O)N[C@@H](CC(N)=O)C(=O)N[C@H](C(=O)NCC(=O)N[C@@H](CO)C(=O)N[C@@H](CC(N)=O)C(=O)N[C@H](C(=O)N[C@@H](Cc1ccc(O)cc1)C(N)=O)[C@@H](C)O)C(C)C)[C@@H](C)O
notes: Analogue of human amylin; also called compound 69
Ratio rCT/rAmylin binding [1]: 104
IC50 [2]: 0.45 nM
IC50 [3]: 46.8 nM
Ratio hCT/hAmylin binding [4]: 65.3

The next binders have a lower IC50 [2] than those just listed; values first:

Ratio rCT/rAmylin binding [1]: 178
IC50 [2]: 0.283 nM
IC50 [3]: 50.3 nM
Ratio hCT/hAmylin binding [4]: 51.7
B2: N^ε1-[2-[2-[2-[[(4S)-4-carboxy-4-(19-carboxynonadecanoylamino)butanoyl]amino]ethoxy]ethoxy]acetyl]-[Ser14,Arg17,Pro21,Pro27,Pro31]-h-amylin (peptide)
peptide: K([AEEA-γGlu-C20 diacid])CNTATCATQRLASFLRHSSPNFGAIPSSTPVGSNTY-NH2
modifications: disulfide 2-7; N-terminus assumed
SMILES: CC[C@H](C)[C@H](NC(=O)[C@H](C)NC(=O)CNC(=O)[C@H](Cc1ccccc1)NC(=O)[C@H](CC(N)=O)NC(=O)[C@@H]1CCCN1C(=O)[C@H](CO)NC(=O)[C@H](CO)NC(=O)[C@H](Cc1c[nH]cn1)NC(=O)[C@H](CCCNC(=N)N)NC(=O)[C@H](CC(C)C)NC(=O)[C@H](Cc1ccccc1)NC(=O)[C@H](CO)NC(=O)[C@H](C)NC(=O)[C@H](CC(C)C)NC(=O)[C@H](CCCNC(=N)N)NC(=O)[C@H](CCC(N)=O)NC(=O)[C@@H](NC(=O)[C@H](C)NC(=O)[C@@H]1CSSC[C@H](NC(=O)[C@@H](N)CCCCNC(=O)COCCOCCNC(=O)CC[C@H](NC(=O)CCCCCCCCCCCCCCCCCCC(=O)O)C(=O)O)C(=O)N[C@@H](CC(N)=O)C(=O)N[C@@H]([C@@H](C)O)C(=O)N[C@@H](C)C(=O)N[C@@H]([C@@H](C)O)C(=O)N1)[C@@H](C)O)C(=O)N1CCC[C@H]1C(=O)N[C@@H](CO)C(=O)N[C@@H](CO)C(=O)N[C@H](C(=O)N1CCC[C@H]1C(=O)N[C@H](C(=O)NCC(=O)N[C@@H](CO)C(=O)N[C@@H](CC(N)=O)C(=O)N[C@H](C(=O)N[C@@H](Cc1ccc(O)cc1)C(N)=O)[C@@H](C)O)C(C)C)[C@@H](C)O
notes: Analogue of human amylin; also called compound 73

Ratio rCT/rAmylin binding [1]: 122
IC50 [2]: 0.234 nM
IC50 [3]: 28.5 nM
Ratio hCT/hAmylin binding [4]: 64.4
B5: N^ε1-[2-[2-[2-[[(4S)-4-carboxy-4-(19-carboxynonadecanoylamino)butanoyl]amino]ethoxy]ethoxy]acetyl]-[His14,Arg17,Pro21,Pro27,Pro34]-h-amylin (peptide)
peptide: K([AEEA-γGlu-C20 diacid])CNTATCATQRLAHFLRHSSPNFGAIPSSTNVGPNTY-NH2
modifications: disulfide 2-7; N-terminus assumed
SMILES: CC[C@H](C)[C@H](NC(=O)[C@H](C)NC(=O)CNC(=O)[C@H](Cc1ccccc1)NC(=O)[C@H](CC(N)=O)NC(=O)[C@@H]1CCCN1C(=O)[C@H](CO)NC(=O)[C@H](CO)NC(=O)[C@H](Cc1c[nH]cn1)NC(=O)[C@H](CCCNC(=N)N)NC(=O)[C@H](CC(C)C)NC(=O)[C@H](Cc1ccccc1)NC(=O)[C@H](Cc1c[nH]cn1)NC(=O)[C@H](C)NC(=O)[C@H](CC(C)C)NC(=O)[C@H](CCCNC(=N)N)NC(=O)[C@H](CCC(N)=O)NC(=O)[C@@H](NC(=O)[C@H](C)NC(=O)[C@@H]1CSSC[C@H](NC(=O)[C@@H](N)CCCCNC(=O)COCCOCCNC(=O)CC[C@H](NC(=O)CCCCCCCCCCCCCCCCCCC(=O)O)C(=O)O)C(=O)N[C@@H](CC(N)=O)C(=O)N[C@@H]([C@@H](C)O)C(=O)N[C@@H](C)C(=O)N[C@@H]([C@@H](C)O)C(=O)N1)[C@@H](C)O)C(=O)N1CCC[C@H]1C(=O)N[C@@H](CO)C(=O)N[C@@H](CO)C(=O)N[C@H](C(=O)N[C@@H](CC(N)=O)C(=O)N[C@H](C(=O)NCC(=O)N1CCC[C@H]1C(=O)N[C@@H](CC(N)=O)C(=O)N[C@H](C(=O)N[C@@H](Cc1ccc(O)cc1)C(N)=O)[C@@H](C)O)C(C)C)[C@@H](C)O
notes: Analogue of human amylin; also called compound 68
